Assay results taken from patent publication US20230374116A1.
Read-outs that look alike come from different tables or passages of the source.

B1: NbSA_A10 (VHH)
VHH: QVQLVESGGGLVQAGDSLRLSCAASGRTFSTTRMAWFRQPPGKEREFVAAIFLNTGTTYYADPVKDRFAISRDNAKNTVYLQMNSLKPEDTAVYYCAAGRFSAAPLTQSTAFESWGQGTQVTVSA
B2: NbSA_D10 (VHH)
VHH: QVQLVESGGGLVQVGGSLRLSCAVSGRTSSDYSVGWFRRAQGKEREFVAALAWTVGATHYGDSVKGRFTVSRDNAKNMVYLQIDSLKPEDTGVYYCAGRYGAGLGFTERIYDYWGQGTQVTVSS
B3: 3_C5 (VHH)
VHH: QVQLVESGGGLVQAGGSLRLSCAASGRTLSMRRMSWFRQAPGKEREFVATINWSSGSIYVTDSVKDRFTISRDNAENTVHLQMNMLKPEDTAVYSCAVQVDIGGYLDGYDYWGQGTQVTVSS
B4: 12_F11 (VHH)
VHH: QVQLVESGGGLVQAGGSLRLSCAASGGAFSTSAMGWFRQAPGKEREFVAVIGWRGVRTYYADSVKGRFTIARDNPQNRVYLEMSSLKSDDTGVYFCAASDGNYGLPWAHFEYDFWGQGIQVTSS
B5: 8_G11 (VHH)
VHH: QVQLVESGGGLVQAGGSLRLSCAASGRTITEYTIGWFRQAPGKEREFVTLISKSTDSTWDADSVKGRFTIARDYAKNTVYLQMNSLKPEDTAVYYCAAGSFYGRDSDAGGYDYWGQGTQVTVSS

What was measured:
[1] = target: Beta RBD
[2] = target: Beta RBD-Fc
[3] = target: Beta RBD-Fc; remark: listed apart in the source

Binder | Kd [1] [nM] | T1/2 [2] [min] | koff [2] [s⁻¹] | kon [2] [M⁻¹ s⁻¹] | Kd [3] [nM] | T1/2 [3] [min] | koff [3] [s⁻¹] | kon [3] [M⁻¹ s⁻¹]
B1 | 0.03 | – | – | – | – | – | – | –
B2 | 0.936 | 18 | 0.0006 | 640000 | – | – | – | –
B3 | – | – | – | – | 0.895 | 14 | 0.0008 | 900000
B4 | – | – | – | – | 0.236 | 12 | 0.00096 | 4.1e+06
B5 | – | – | – | – | 0.443 | 20 | 0.00057 | 1.3e+06
